Experimental data from patent US20190345232A1 (GENEURO, published 2019).

Target: T1, linear peptide SLDKHKHKKLQSFYP (SEQ ID NO:9) from HERV-K-Env (human endogenous retrovirus type K …)
T1 construct: 15-mer synthesized on a solid support in the Pepscan peptide array; It corresponds to the 298-312 region of the HERV-K-Env protein described by Dewannieux et al 2005
T1 peptide: SLDKHKHKKLQSFYP
Test: Pepscan peptide array ELISA, antibody at 1 µg/ml

B1: GN_mAb_Env_K01 (antibody, V domains shown)
VH: QVQLQQPGAELVRPGASVKLSCKASGYTFTSYWMNWVKQRPEQGLEWIGRIDPYDSETHYNQKFKDKAILTVDKSSSTAYMQLSSLTSEDSAVYYCASLYYYGISLWGQGTLVTVS
VL: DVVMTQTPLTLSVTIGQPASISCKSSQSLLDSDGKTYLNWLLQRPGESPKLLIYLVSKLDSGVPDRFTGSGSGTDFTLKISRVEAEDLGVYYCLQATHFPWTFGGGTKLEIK
notes: also called GN K01; GN K01 Ig
binding result: binds
